Experimental data taken from PMC8399149, “Engineering of Yeast Old Yellow Enzyme OYE3 Enables Its Capability Discriminating of (E)-Citral and (Z)-Citral” (Molecules, 2021).

B1: old yellow enzyme OYE3 (Saccharomyces cerevisiae S288C; S297F/W117G) (protein)
chain: MPFVKGFEPISLRDTNLFEPIKIGNTQLAHRAVMPPLTRMRATHPGNIPNKEWAAVYYGQRAQRPGTMIITEGTFISPQAGGYDNAPGIWSDEQVAEWKNIFLAIHDCQSFAWVQLGSLGWASFPDVLARDGLRYDCASDRVYMNATLQEKAKDANNLEHSLTKDDIKQYIKDYIHAAKNSIAAGADGVEIHSANGYLLNQFLDPHSNKRTDEYGGTIENRARFTLEVVDALIETIGPERVGLRLSPYGTFNSMSGGAEPGIIAQYSYVLGELEKRAKAGKRLAFVHLVEPRVTDPFLVEGEGEYSEGTNDFAYSIWKGPIIRAGNYALHPEVVREQVKDPRTLIGYGRFFISNPDLVYRLEEGLPLNKYDRSTFYTMSAEGYTDYPTYEEAVDLGWNKN
B2: old yellow enzyme OYE3 (Saccharomyces cerevisiae S288C) (protein)
chain: PFVKGFEPISLRDTNLFEPIKIGNTQLAHRAVMPPLTRMRATHPGNIPNKEWAAVYYGQRAQRPGTMIITEGTFISPQAGGYDNAPGIWSDEQVAEWKNIFLAIHDCQSFAWVQLWSLGWASFPDVLARDGLRYDCASDRVYMNATLQEKAKDANNLEHSLTKDDIKQYIKDYIHAAKNSIAAGADGVEIHSANGYLLNQFLDPHSNKRTDEYGGTIENRARFTLEVVDALIETIGPERVGLRLSPYGTFNSMSGGAEPGIIAQYSYVLGELEKRAKAGKRLAFVHLVEPRVTDPSLVEGEGEYSEGTNDFAYSIWKGPIIRAGNYALHPEVVREQVKDPRTLIGYGRFFISNPDLVYRLEEGLPLNKYDRSTFYTMSAEGYTDYPTYEEAVDLGWNKN

Experiments:
[1] = substrate: CC(C)=CCC/C(C)=C/C=O; assay: purified protein; format: biochemical, Saccharomyces cerevisiae; conditions: FMN, NADPH active site
[2] = substrate: CC(C)=CCC/C(C)=C\C=O; assay: purified protein; format: biochemical, Saccharomyces cerevisiae; conditions: FMN; NADPH active site; H191/N194 hydrogen bonds with the carbonyl oxygen of citral, hydride from FMNH2 to Cβ, Y196 proton donor (docking)
[3] = H191/N194 hydrogen bonds with the carbonyl oxygen of citral, hydride from FMNH2 to Cβ, Y196 proton donor (docking)

| Protein | Km ([1]; accommodation similar to OYE3 (docking)) [µM] | Km [1, 3] [µM] | Vmax [1, 3] [µmol/min/mg] | kcat [1, 3] [s⁻¹] | kcat/Km [1, 3] [M⁻¹ s⁻¹] | Km [2] [µM] | Vmax [2] [µmol/min/mg] | kcat [2] [s⁻¹] | kcat/Km [2] [M⁻¹ s⁻¹] |
| --- | --- | --- | --- | --- | --- | --- | --- | --- | --- |
| B1 | 90 | – | – | – | – | – | – | – | – |
| B2 | – | 50 ± 10 | 0.16 | 0.13 ± 0.02 | 2760 ± 110 | 70 ± 10 | 0.12 | 0.1 ± 0.01 | 1490 ± 80 |
